Source: US6475717

What was measured:
[1] = molecular target: T1, human IL-7 (human) (UniProt P13232); test: control in IL-4R/Fc sandwich ELISA; hu IL-7 at 50 ng/ml
T1 sequence (looked up): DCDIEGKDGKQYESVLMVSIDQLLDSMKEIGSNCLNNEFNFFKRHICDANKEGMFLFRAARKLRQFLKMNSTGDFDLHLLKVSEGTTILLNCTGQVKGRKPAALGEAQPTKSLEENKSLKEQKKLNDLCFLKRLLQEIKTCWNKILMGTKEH

[2] = molecular target: T2, murine recombinant IL-4 (Immunex, Lot 2871-023) (murine) (UniProt P07750); test: control in IL-4R/Fc sandwich ELISA; mu IL-4 at 50 ng/ml
T2 sequence (looked up): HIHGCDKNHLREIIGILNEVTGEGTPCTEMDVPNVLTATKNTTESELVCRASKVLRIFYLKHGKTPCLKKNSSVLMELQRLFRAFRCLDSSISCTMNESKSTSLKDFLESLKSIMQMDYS

[3] = molecular target: human IL-2 (human) (UniProt P60568); test: control in IL-4R/Fc sandwich ELISA; hu IL-2 at 5000 IU/ml
Sequence of UniProt P60568 (P60568 21-153 limits assumed): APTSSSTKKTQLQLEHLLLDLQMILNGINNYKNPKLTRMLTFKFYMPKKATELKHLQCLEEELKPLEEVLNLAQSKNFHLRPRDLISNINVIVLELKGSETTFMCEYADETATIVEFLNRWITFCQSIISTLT

[4] = molecular target: human IL-6 (human) (UniProt P05231); test: control in IL-4R/Fc sandwich ELISA; hu IL-6 at 5000 IU/ml
Sequence of UniProt P05231 (P05231 30-212 limits assumed): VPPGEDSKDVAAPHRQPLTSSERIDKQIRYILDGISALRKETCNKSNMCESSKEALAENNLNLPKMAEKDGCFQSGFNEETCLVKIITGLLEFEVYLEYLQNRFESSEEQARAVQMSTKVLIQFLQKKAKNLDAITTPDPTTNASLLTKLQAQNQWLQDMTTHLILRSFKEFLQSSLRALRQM

[5] = molecular target: human IL-1-beta (human) (UniProt P01584); test: control in IL-4R/Fc sandwich ELISA; hu IL-1 β at 16.6 ng/ml
Sequence of UniProt P01584 (P01584 117-269 limits assumed): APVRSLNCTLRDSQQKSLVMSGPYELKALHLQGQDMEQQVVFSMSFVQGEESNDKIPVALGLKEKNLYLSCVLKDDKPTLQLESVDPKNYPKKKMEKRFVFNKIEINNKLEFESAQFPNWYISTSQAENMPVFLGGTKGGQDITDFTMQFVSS

[6] = molecular target: T3, human IL-1-alpha (human) (UniProt P01583); test: control in IL-4R/Fc sandwich ELISA; hu IL-1 α at 7.5 ng/ml
T3 sequence (looked up): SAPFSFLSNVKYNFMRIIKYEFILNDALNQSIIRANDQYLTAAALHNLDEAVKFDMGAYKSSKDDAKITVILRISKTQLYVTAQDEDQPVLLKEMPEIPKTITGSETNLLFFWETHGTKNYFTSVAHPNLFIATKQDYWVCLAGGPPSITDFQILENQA

[7] = molecular target: human TNF-alpha (human) (UniProt P01375); test: control in IL-4R/Fc sandwich ELISA; hu-TNF α as printed (Genzyme B1089) at 50 ng/ml
Sequence of UniProt P01375 (P01375 77-233 limits assumed): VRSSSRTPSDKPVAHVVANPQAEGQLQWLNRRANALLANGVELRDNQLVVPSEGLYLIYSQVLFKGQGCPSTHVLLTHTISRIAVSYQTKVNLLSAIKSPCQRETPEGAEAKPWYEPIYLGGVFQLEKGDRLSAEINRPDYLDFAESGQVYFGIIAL

[8] = molecular target: human TNF-alpha (human) (UniProt P01375); test: control in IL-4R/Fc sandwich ELISA; hu-TNF α (Immunex) at 50 ng/ml
[9] = molecular target: human recombinant IL-4 (Immunex, Lot 1898-022) (human) (UniProt P05112); test: control in mu IL-4R/Fc sandwich ELISA; hu IL-4 at 50 ng/ml
Sequence of UniProt P05112 (P05112 25-153 limits assumed): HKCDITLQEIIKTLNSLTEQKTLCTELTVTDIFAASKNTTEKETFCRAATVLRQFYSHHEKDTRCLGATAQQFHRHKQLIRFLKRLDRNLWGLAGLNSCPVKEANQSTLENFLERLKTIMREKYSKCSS

[10] = molecular target: murine TNF-alpha (murine) (UniProt P06804); test: control in mu IL-4R/Fc sandwich ELISA; mu-TNF α at 100 ng/ml
Sequence of UniProt P06804 (P06804 80-235 limits assumed): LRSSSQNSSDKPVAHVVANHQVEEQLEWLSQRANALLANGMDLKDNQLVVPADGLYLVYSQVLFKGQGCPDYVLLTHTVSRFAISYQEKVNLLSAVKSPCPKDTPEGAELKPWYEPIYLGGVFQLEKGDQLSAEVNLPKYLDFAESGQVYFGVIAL

[11] = molecular target: T4, murine IL-1-beta (murine) (UniProt P10749); test: control in mu IL-4R/Fc sandwich ELISA; mu IL-1 β at 10 ng/ml
T4 sequence (looked up): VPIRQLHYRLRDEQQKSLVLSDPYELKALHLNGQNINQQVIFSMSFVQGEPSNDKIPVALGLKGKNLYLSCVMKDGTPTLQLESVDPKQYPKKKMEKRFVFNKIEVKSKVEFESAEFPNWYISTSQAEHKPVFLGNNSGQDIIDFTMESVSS

[12] = molecular target: T5, murine IL-1-alpha (murine) (UniProt P01582); test: control in mu IL-4R/Fc sandwich ELISA; mu IL-1 α at 100 IU/ml
T5 sequence (looked up): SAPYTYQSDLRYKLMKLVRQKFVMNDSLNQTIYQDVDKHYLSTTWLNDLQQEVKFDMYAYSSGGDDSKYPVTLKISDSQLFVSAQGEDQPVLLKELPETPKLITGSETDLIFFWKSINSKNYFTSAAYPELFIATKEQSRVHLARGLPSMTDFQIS

Measured: concentration determined from the extinction

human IL-4 receptor/immunoglobulin Fc fusion protein (from UniProt P24394 26-232)
not listed: [9] | [10] | [11] | [12]
< 31 pg/mL: all other assays above

B1: murine IL-4 receptor/immunoglobulin Fc fusion protein (Fc fusion, UniProt P16382 26-233, looked up, not shown: small tags and cut ends)
chain: IKVLGEPTCFSDYIRTSTCEWFLDSAVDCSSQLCLHYRLMFFEFSENLTCIPRNSASTVCVCHMEMNRPVQSDRYQMELWAEHRQLWQGSFSPSGNVKPLAPDNLTLHTNVSDEWLLTWNNLYPSNNLLYKDLISMVNISREDNPAEFIVYNVTYKEPRLSFPINILMSGVYYTARVRVRSQILTGTWSEWSPSITWYNHFQLPLIQR
< 31 pg/mL: [9] | [10] | [11] | [12]
